Laboratory results taken from publication PMC3406929.

Target: 1JO8-ZM109 (V1/V2 of HIV-1 strain ZM109 in the 1JO8 scaffold) (not stated | HIV-1 strain ZM109)

B1: antibody PG9 (antibody, V domains shown)
VH: QRLVESGGGVVQPGSSLRLSCAASGFDFSRQGMHWVRQAPGQGLEWVAFIKYDGSEKYHADSVWGRLSISRDNSKDTLYLQMNSLRVEDTATYFCVREAGGPDYRNGYNYYDFYDGYYNYHYMDVWGKGTTVTVSS
VL: QSALTQPASVSGSPGQSITISCNGTSNDVGGYESVSWYQQHPGKAPKVVIYDVSKRPSGVSNRFSGSKSGNTASLTISGLQAEDEGDYYCKSLTSTRRRVFGTGTKLTVL
fold lower affinity than for wild-type ZM109 gp120: 3 fold
